Data: the supplement of paper PMC9112550, “Optimization of the antimicrobial peptide Bac7 by deep mutational scanning” (BMC Biology, 2022)

Tested on: Escherichia coli TOP10
Assay: shrunken log2 fold change of peptide-encoding DNA abundance (4.5 h post-induction vs induction); higher = less antimicrobial activity (less host growth inhibition)
Details: time post-induction: 4.5 h; library: site-saturation at positions 5, 18, 19, 20
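Note: peptides expressed intracellularly from a pBAD plasmid library in pooled LB shake-flask culture, induced with 0.3% L-arabinose, DNA abundance read by NGS, three biological replicates, DESeq2 with apeglm shrinkage.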

Sequence	shrunken log2 fold change
RRIRARPPRLPRPRPRPERWPRP	0.956
RRIRARPPRLPRPRPRPESMPRP	0.77
RRIRARPPRLPRPRPRPESTPRP	1.05
RRIRARPPRLPRPRPRPETHPRP	0.56
RRIRARPPRLPRPRPRPETRPRP	0.662
RRIRARPPRLPRPRPRPEWSPRP	0.949
RRIRARPPRLPRPRPRPEYTPRP	-0.0194
RRIRARPPRLPRPRPRPFACPRP	0.829
RRIRARPPRLPRPRPRPFAKPRP	0.349
RRIRARPPRLPRPRPRPFALPRP	0.185
RRIRARPPRLPRPRPRPFAYPRP	-0.289
RRIRARPPRLPRPRPRPFCAPRP	0.394
RRIRARPPRLPRPRPRPFCKPRP	-0.25
RRIRARPPRLPRPRPRPFCMPRP	0.0299
RRIRARPPRLPRPRPRPFEHPRP	0.172
RRIRARPPRLPRPRPRPFEKPRP	-0.122
RRIRARPPRLPRPRPRPFFEPRP	0.423
RRIRARPPRLPRPRPRPFGHPRP	0.132
RRIRARPPRLPRPRPRPFHDPRP	-0.356
RRIRARPPRLPRPRPRPFHQPRP	-0.211

Sequence	shrunken log2 fold change
RRIRARPPRLPRPRPRPFHSPRP	-0.217
RRIRARPPRLPRPRPRPFLQPRP	0.123
RRIRARPPRLPRPRPRPFLRPRP	0.0973
RRIRARPPRLPRPRPRPFNKPRP	-0.0214
RRIRARPPRLPRPRPRPFNRPRP	-0.277
RRIRARPPRLPRPRPRPFPCPRP	0.0215
RRIRARPPRLPRPRPRPFQKPRP	0.121
RRIRARPPRLPRPRPRPFREPRP	-0.14
RRIRARPPRLPRPRPRPFRGPRP	-0.0013
RRIRARPPRLPRPRPRPFSVPRP	-0.107
RRIRARPPRLPRPRPRPFTCPRP	0.0835
RRIRARPPRLPRPRPRPFVLPRP	-0.181
RRIRARPPRLPRPRPRPGDNPRP	0.133
RRIRARPPRLPRPRPRPGDPPRP	0.971
RRIRARPPRLPRPRPRPGDQPRP	0.804
RRIRARPPRLPRPRPRPGFDPRP	0.719
RRIRARPPRLPRPRPRPGFRPRP	0.555
RRIRARPPRLPRPRPRPGGNPRP	0.2
RRIRARPPRLPRPRPRPGHLPRP	0.337
RRIRARPPRLPRPRPRPGHQPRP	0.304

Sequence	shrunken log2 fold change
RRIRARPPRLPRPRPRPGHYPRP	0.186
RRIRARPPRLPRPRPRPGKHPRP	0.089
RRIRARPPRLPRPRPRPGKVPRP	0.0119
RRIRARPPRLPRPRPRPGMSPRP	0.649
RRIRARPPRLPRPRPRPGPGPRP	1.08
RRIRARPPRLPRPRPRPGPPPRP	0.736
RRIRARPPRLPRPRPRPGQWPRP	0.466
RRIRARPPRLPRPRPRPGSMPRP	0.135
RRIRARPPRLPRPRPRPGTIPRP	-0.0682
RRIRARPPRLPRPRPRPGVFPRP	0.502
RRIRARPPRLPRPRPRPGVIPRP	0.0533
RRIRARPPRLPRPRPRPGVRPRP	0.797
RRIRARPPRLPRPRPRPGYFPRP	0.212
RRIRARPPRLPRPRPRPGYQPRP	0.0478
RRIRARPPRLPRPRPRPHAKPRP	-0.0556
RRIRARPPRLPRPRPRPHAQPRP	0.122
RRIRARPPRLPRPRPRPHARPRP	0.156
RRIRARPPRLPRPRPRPHASPRP	-0.0111
RRIRARPPRLPRPRPRPHEHPRP	0.0352
RRIRARPPRLPRPRPRPHELPRP	0.0601
